Data: US20120238493A1 (INDIANA UNIVERSITY RESEARCH AND TECHNOLOGY, published 2012)
*1 amine or outer side, *2 acyl side, *3 side chain or, on linkers, in order; H or OH if unused. Where no end group is shown, it is not given here. Side-chain parts run from the residue outwards. [ ]: non-standard residue; d: D form. The star is where a group is joined. γGlu = O=C(O)[C@H](CCC(=O)[*:2])N[*:1]; Palmitoyl = CCCCCCCCCCCCCCCC(=O)*; 40K‑TE = not defined here; Ac3c = NC1(C(=O)O)CC1; Aib = CC(C)(N)C(=O)O

B1: peptide of SEQ ID NO: 79 (peptide)
peptide: H[Aib]QGTFTSDK([γGlu-Palmitoyl])SKYLDERRA[Aib]EFVQWLLDGGPSSGAPPPS-NH2
modifications: N-terminus assumed
SMILES: CCCCCCCCCCCCCCCC(=O)N[C@@H](CCC(=O)NCCCC[C@H](NC(=O)[C@H](CC(=O)O)NC(=O)[C@H](CO)NC(=O)[C@@H](NC(=O)[C@H](Cc1ccccc1)NC(=O)[C@@H](NC(=O)CNC(=O)[C@H](CCC(N)=O)NC(=O)C(C)(C)NC(=O)[C@@H](N)Cc1c[nH]cn1)[C@@H](C)O)[C@@H](C)O)C(=O)N[C@@H](CO)C(=O)N[C@@H](CCCCN)C(=O)N[C@@H](Cc1ccc(O)cc1)C(=O)N[C@@H](CC(C)C)C(=O)N[C@@H](CC(=O)O)C(=O)N[C@@H](CCC(=O)O)C(=O)N[C@@H](CCCNC(=N)N)C(=O)N[C@@H](CCCNC(=N)N)C(=O)N[C@@H](C)C(=O)NC(C)(C)C(=O)N[C@@H](CCC(=O)O)C(=O)N[C@@H](Cc1ccccc1)C(=O)N[C@H](C(=O)N[C@@H](CCC(N)=O)C(=O)N[C@@H](Cc1c[nH]c2ccccc12)C(=O)N[C@@H](CC(C)C)C(=O)N[C@@H](CC(C)C)C(=O)N[C@@H](CC(=O)O)C(=O)NCC(=O)NCC(=O)N1CCC[C@H]1C(=O)N[C@@H](CO)C(=O)N[C@@H](CO)C(=O)NCC(=O)N[C@@H](C)C(=O)N1CCC[C@H]1C(=O)N1CCC[C@H]1C(=O)N1CCC[C@H]1C(=O)N[C@@H](CO)C(N)=O)C(C)C)C(=O)O
B2: peptide of SEQ ID NO: 80 (peptide)
peptide: H[Aib]EGTFTSDK([γGlu-Palmitoyl])SKYLDERAAQDFVQWLLDGGPSSGAPPPS-NH2
modifications: N-terminus assumed
SMILES: CCCCCCCCCCCCCCCC(=O)N[C@@H](CCC(=O)NCCCC[C@H](NC(=O)[C@H](CC(=O)O)NC(=O)[C@H](CO)NC(=O)[C@@H](NC(=O)[C@H](Cc1ccccc1)NC(=O)[C@@H](NC(=O)CNC(=O)[C@H](CCC(=O)O)NC(=O)C(C)(C)NC(=O)[C@@H](N)Cc1c[nH]cn1)[C@@H](C)O)[C@@H](C)O)C(=O)N[C@@H](CO)C(=O)N[C@@H](CCCCN)C(=O)N[C@@H](Cc1ccc(O)cc1)C(=O)N[C@@H](CC(C)C)C(=O)N[C@@H](CC(=O)O)C(=O)N[C@@H](CCC(=O)O)C(=O)N[C@@H](CCCNC(=N)N)C(=O)N[C@@H](C)C(=O)N[C@@H](C)C(=O)N[C@@H](CCC(N)=O)C(=O)N[C@@H](CC(=O)O)C(=O)N[C@@H](Cc1ccccc1)C(=O)N[C@H](C(=O)N[C@@H](CCC(N)=O)C(=O)N[C@@H](Cc1c[nH]c2ccccc12)C(=O)N[C@@H](CC(C)C)C(=O)N[C@@H](CC(C)C)C(=O)N[C@@H](CC(=O)O)C(=O)NCC(=O)NCC(=O)N1CCC[C@H]1C(=O)N[C@@H](CO)C(=O)N[C@@H](CO)C(=O)NCC(=O)N[C@@H](C)C(=O)N1CCC[C@H]1C(=O)N1CCC[C@H]1C(=O)N1CCC[C@H]1C(=O)N[C@@H](CO)C(N)=O)C(C)C)C(=O)O

Target: glucagon receptor (UniProt P47871 26-477, limits assumed)
Test: cell-based or functional assay

Sequence of glucagon receptor (P47871 26-477 limits assumed): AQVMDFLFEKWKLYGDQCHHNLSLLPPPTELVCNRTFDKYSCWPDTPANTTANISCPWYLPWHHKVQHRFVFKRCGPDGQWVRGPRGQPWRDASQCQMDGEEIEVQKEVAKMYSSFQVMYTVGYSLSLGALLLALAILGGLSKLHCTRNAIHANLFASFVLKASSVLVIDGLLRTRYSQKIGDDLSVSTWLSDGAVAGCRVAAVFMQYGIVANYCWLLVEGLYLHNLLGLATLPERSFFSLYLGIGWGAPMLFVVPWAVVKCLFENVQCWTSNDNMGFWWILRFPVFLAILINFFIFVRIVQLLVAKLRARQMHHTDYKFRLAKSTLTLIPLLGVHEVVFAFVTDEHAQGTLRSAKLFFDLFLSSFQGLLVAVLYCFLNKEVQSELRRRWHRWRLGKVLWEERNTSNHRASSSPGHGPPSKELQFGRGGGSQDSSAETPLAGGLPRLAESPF

Binder | EC50 (cAMP reporter)
Y[Aib]QGTFISDYSIYLDKQAA[Ac3c]EFVNWLLAGGPSSGAPPPSC(40K‑TE)-NH2 (not fully specified; reading uncertain) [peptide of SEQ ID NO: 75] | 3.12 nM
B1 | 0.004 nM
H[Aib]QGTFISDYSIYLDKQAA[Ac3c]EFVNWLLAGGPSSGAPPPSC(40K‑TE)-NH2 (not fully specified; reading uncertain) [peptide of SEQ ID NO: 74] | 2.52 nM
YXEGTFTSDYSIYLDKQAAXEFVNWLLAGGPSSGAPPPSC (not fully specified; aib at 2; acpc at 20; C-terminal C(40K-TE); NH2) [peptide of SEQ ID NO: 73] | ~10 nM
B2 | 1.28 nM

Target: GLP-1 receptor (UniProt P43220 24-463, limits assumed)
Test: cell-based or functional assay

Binder | EC50 (cAMP reporter)
Y[Aib]QGTFISDYSIYLDKQAA[Ac3c]EFVNWLLAGGPSSGAPPPSC(40K‑TE)-NH2 (not fully specified; reading uncertain) [peptide of SEQ ID NO: 75] | 17.7 nM
B1 | 0.006 nM
H[Aib]QGTFISDYSIYLDKQAA[Ac3c]EFVNWLLAGGPSSGAPPPSC(40K‑TE)-NH2 (not fully specified; reading uncertain) [peptide of SEQ ID NO: 74] | 6.42 nM
YXEGTFTSDYSIYLDKQAAXEFVNWLLAGGPSSGAPPPSC (not fully specified; aib at 2; acpc at 20; C-terminal C(40K-TE); NH2) [peptide of SEQ ID NO: 73] | 0.91 nM
B2 | 0.008 nM

Target: T1, GIP receptor (UniProt P48546 22-466, limits assumed)
T1 sequence (looked up): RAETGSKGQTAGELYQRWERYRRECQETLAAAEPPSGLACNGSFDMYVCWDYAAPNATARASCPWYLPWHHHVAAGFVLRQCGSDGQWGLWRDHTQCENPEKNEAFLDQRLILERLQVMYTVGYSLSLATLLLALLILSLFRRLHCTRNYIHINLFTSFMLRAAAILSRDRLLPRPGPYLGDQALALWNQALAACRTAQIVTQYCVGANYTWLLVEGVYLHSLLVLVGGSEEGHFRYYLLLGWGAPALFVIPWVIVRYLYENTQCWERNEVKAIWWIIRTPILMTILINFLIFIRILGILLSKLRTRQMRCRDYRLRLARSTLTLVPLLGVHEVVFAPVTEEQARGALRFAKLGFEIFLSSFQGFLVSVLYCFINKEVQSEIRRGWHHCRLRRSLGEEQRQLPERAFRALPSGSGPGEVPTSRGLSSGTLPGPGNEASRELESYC
Test: cell-based or functional assay

Binder | EC50 (cAMP reporter)
Y[Aib]QGTFISDYSIYLDKQAA[Ac3c]EFVNWLLAGGPSSGAPPPSC(40K‑TE)-NH2 (not fully specified; reading uncertain) [peptide of SEQ ID NO: 75] | 2.44 nM
B1 | 0.003 nM
H[Aib]QGTFISDYSIYLDKQAA[Ac3c]EFVNWLLAGGPSSGAPPPSC(40K‑TE)-NH2 (not fully specified; reading uncertain) [peptide of SEQ ID NO: 74] | 2.54 nM
YXEGTFTSDYSIYLDKQAAXEFVNWLLAGGPSSGAPPPSC (not fully specified; aib at 2; acpc at 20; C-terminal C(40K-TE); NH2) [peptide of SEQ ID NO: 73] | 1.56 nM
B2 | 0.026 nM
